The values below come from article PMC6201568.

Conditions in all cases: 285 mM Tris-HCl pH 8.0, 0.14 mg/mL BSA, 1.43 mM DTT, 5% glycerol, 0.04 mg/mL poly(dI-dC), 3.06 mM EDTA, 10 uL, 30 min at 25 C, 6% PAGE in TAE pH 8.2
Series [1] has as its system T1, PhaR-His6 (Bradyrhizobium diazoefficiens USDA110), ORF:9916d0df.
T1 sequence: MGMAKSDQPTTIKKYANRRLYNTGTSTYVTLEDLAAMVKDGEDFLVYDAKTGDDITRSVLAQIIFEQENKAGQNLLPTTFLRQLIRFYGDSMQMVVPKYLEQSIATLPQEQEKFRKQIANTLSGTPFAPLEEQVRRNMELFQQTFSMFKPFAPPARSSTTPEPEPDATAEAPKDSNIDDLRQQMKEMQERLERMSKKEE
Put plainly: EMSA. For orientation: In EMSA bound probe runs differently from free probe, usually more slowly.

The test system is the same in series [2]. Put plainly: DNase I footprinting.
For series [3], the system named is PhaR-His6 (Bradyrhizobium diazoefficiens USDA110). Put plainly: EMSA.

In the case of “CACAAGATGATGCTCGATCACTACCAGCAGACCAAGAATCTCCTGGTCAGCTACAGCCCGAAGAAGCTCGGCTTCTTCTGATCGGAACAGGAGCGGGCGGCGCCGTTCTGGCGCCGCTCGTTCCGGTAAACGGGACCTGGCCCGCACGGCGTTAGATTTGTTGCCTGATCAGCGCCAAAGATTTTCCAATATTTCGATCACGTTGCAGTGCGGCATAATGAATGTCGTGTCATGCCGCCGCGGTGCTTTCCAAGGGTGTTTGACTTGGGTTAGAGAGGACGAAAGTTTTCTCTGACCCGG (double strand) [pdhA promoter]”, the binding result in series [1] is “binds more weakly”. For the substance “CTAAGGTGATGTTCTCAAACGGCTTTTGGCCGCTTGCGGAAGCTGAACACGTCCAGGGAATCAAGGTAGGGGTCCGCGGTTTCCAAAAGCTTAAGGAACCCTTGCGGGAAACCCCGGGAATCTCTTCGGTTTGGATCTAGTTTTTGTGCGACGCACAAGATTCTTGACTTTTTTGTGCGTTGCACTAATTGTGGGCAGAGTCAGGGAGCCGGGGCTTCCCGACGCGAGCCAGGGAAAAGGATTCCGAAATGTTCAAGGTTGAAGACTTTCAGAGCTACGGGAAAGAGCAGTTC (double strand) [FAM-phaP1 promoter (footprint)]”, the binding result in series [2] is listed as “binds”. Take “CTCTCACTTGCAAGACGCTGAGAACGGGAACCCGGCGGCCGATGCCGCAGGGCGGGAAGAGTACGCAACGCAACAAAATAAGCATTTTCAAAGGGGTCACGCTACCGTTTTGTGCGCCACGGTTAATCGGGCAGCAAAAACGT (double strand) [phaR promoter]”: the K half in series [1] worked out at 110 nM. With phaR promoter, the K half in series [3] (half of DNA in complex at highest concentration) was found to be 110 nM. As to ppc promoter, in series [3] (about half of DNA shifted only at highest concentration), the K half was 110 nM.
